Laboratory results as given in patent US20240425587A1 (Alector, published 2024).
Substitutions are numbered along the chain they refer to. Names may count otherwise. Each block holds one binder with its values, some of them ahead of it.

What was measured:
[1] = target: T1, PILRA Fc (soluble human PILRA) (human, UniProt Q9UKJ1 20-197, limits assumed); test: flow cytometry blocking assay, graph 'V1 Blocking_CD3+T Donor 906': antibody mixed with PILRA-Fc, then human CD3+ T cells; bound PILRA-Fc detected with AF647 2nd Ab; blocked partner: PILRA ligand on the T cells
T1 construct: also called soluble PILRA; not shown: Fc part, detected with anti-human IgG
Procedure: The ability of conditioned media samples containing antibodies to inhibit the binding of PILRA Fc to human CD3+ T cells was assessed. Briefly, conditioned media samples containing antibodies were incubated with 1.25 ug/ml PILRA Fc for 30 min at 4° C. and then added to human T cells. After 30 minutes incubation at 4° C., cells were washed, and bound PILRA Fc was detected with anti-human IgG Alexa 647. Cells were analyzed by flow cytometry on FACS Canto II, and for all cell lines, the amount of PILRA Fc binding (MIFI) and the percentage of PILRA Fc binding in the presence of conditioned media relative to PILRA Fc binding alone was calculated. Several antibodies inhibited binding of PILRA Fc to human T cells, and a few antibodies enhanced PILRA-Fc binding to T cells. Antibodies that show enhancement in this assay may block cis inhibition to promote trans interactions or may allosterically activate to enhance trans interactions without blocking cis.

[2] = target: T2, human PILRA, c-term His-Avi tag (human, UniProt Q9UKJ1 20-197, limits assumed); test: SPR (Biacore), antibody captured, PILRA as analyte
T2 construct: not shown: C-terminal His-Avi tag
Method in brief: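 Antibodies were captured at 10 μg/ml on an anti-huFc or anti-msFc CM5 surface, and human PILRA was flowed at 33, 100 and 300 nM in HBSTE/0.5% BSA, pH 7.4. The surface was regenerated with 10 mM glycine-HCl, pH 2.1, after each analyte. Curves were double-referenced with buffer injections.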

[3] = target: cynomolgus PILRA, ectopically expressed on 293 cells (cynomolgus monkey); test: screening summary, TCP groups
[4] = target: T3, human PILRA, G78 variant, ectopically expressed on 293 cells (human, UniProt Q9UKJ1 20-303); test: screening summary, TCP groups
T3 construct: the cells are labelled G78; also called hA G78 OE; hA
T3 sequence (Q9UKJ1 other isoform, or with tags, fused parts or gaps mutant): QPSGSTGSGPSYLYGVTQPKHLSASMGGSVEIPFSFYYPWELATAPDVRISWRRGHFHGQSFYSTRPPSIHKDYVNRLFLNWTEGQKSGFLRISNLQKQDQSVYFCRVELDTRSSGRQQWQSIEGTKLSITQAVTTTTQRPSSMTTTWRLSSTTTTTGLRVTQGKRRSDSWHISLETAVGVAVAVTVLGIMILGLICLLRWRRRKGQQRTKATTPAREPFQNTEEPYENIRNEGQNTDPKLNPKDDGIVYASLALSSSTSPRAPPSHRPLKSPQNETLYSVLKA

Chain of cynomolgus PILRA, ectopically expressed on 293 cells (cynomolgus monkey) (chain, as listed by the source): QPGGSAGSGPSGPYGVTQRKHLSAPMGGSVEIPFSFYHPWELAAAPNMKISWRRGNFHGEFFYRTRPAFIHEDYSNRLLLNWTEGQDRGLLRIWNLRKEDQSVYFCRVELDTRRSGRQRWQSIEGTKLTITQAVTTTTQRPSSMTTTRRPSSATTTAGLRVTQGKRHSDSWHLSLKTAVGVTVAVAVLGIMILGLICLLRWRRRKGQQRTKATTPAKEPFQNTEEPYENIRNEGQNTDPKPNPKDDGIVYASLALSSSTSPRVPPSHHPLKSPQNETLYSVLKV
T2 sequence (Q9UKJ1 20-197 limits assumed): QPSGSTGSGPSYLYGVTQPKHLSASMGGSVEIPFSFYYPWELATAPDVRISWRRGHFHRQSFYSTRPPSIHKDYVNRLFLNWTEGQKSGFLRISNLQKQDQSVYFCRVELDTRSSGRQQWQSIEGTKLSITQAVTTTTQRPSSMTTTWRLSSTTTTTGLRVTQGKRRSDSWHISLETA
T1 sequence (Q9UKJ1 20-197 limits assumed): as above

IC50 (read off the curve) [1]: ~3 µg/mL | Kd [2]: 7 nM | koff [2]: 0.0015 s⁻¹ | kon [2]: 210000 M⁻¹ s⁻¹ | t½ [2]: 7.9 min
B1: hPA-005 (antibody, V domains shown)
VH: QVILKESGPGILQSSQTLSLTCSFSGFSLSTFGMGVGWIRQPSGKGLESLAHIWWDDDKFYNPALKSRLTISKDTSKSQVFLKIANVDTADIATYYCTRIEDYGSYFAYWGQGTTLTVSS
VL: DVQMNQSPSSLSASLGDPITITCHASQNIHVWLNWYQQRPGNIPRLLIYKASNLHTGVPSRFSGSGSGTGFTLTISSLQPEDIATYYCQQGQSYPYTFGGGTKLEIK

IC50 (read off the curve) [1]: ~3 µg/mL | Kd [2]: 9 nM | koff [2]: 0.0011 s⁻¹ | kon [2]: 130000 M⁻¹ s⁻¹ | t½ [2]: 10.1 min
B2: hPA-004 (antibody, V domains shown)
VH: QVTLKESGPGMLQPSQTLSLACSFSGFSLNSFGVAVGWIRQPSGKGLEWLAHIWWDDDKSYNPALKSRLTISKDTSKNQVFLKLANVDTADTATYYCTRIADYGNHFDYWGQGTALTVSS
VL: B1 VL with V2I, P18T, I29S, N34S, R39K, R45K, S77G, S93T, Y96F, G100S

binding result [3]: binds | Kd [2]: 8.3 nM | koff [2]: 0.0042 s⁻¹ | kon [2]: 510000 M⁻¹ s⁻¹ | t½ [2]: 2.7 min
B3: C3 (antibody, V domains shown)
VH: EVHLQQSGPELVKPGASVKISCKASGYTFTDYYLNWVKLSLGKSLEWIGDINPNDGDTSYNQTFKGKATLTVDKSSSTAYMELRSLTSEDSAVYYCARRASSYYSNYGWYFDVWGTGTTVTVSS
VL: DILLTQSPAILSVSPGERVSFSCRASQSIGTSIHWYQQRTNGSPRLLIKFASESISGIPSRFSGSGSGTDFTLSINTVESEDIGDYYCQESNSWPTTFGAGTKLELK
notes: first hybridoma campaign

binding result [4]: binds
B4: D9 (antibody, V domains shown)
VH: QVQLKESGPGLVAPSQSLSITCSVSGFSLSSYAINWVREPPGKGLEWLGVIWTGGGTNYNSALKSRLSISKDNSKSQVFLKMNSLQTDDTARYYCARNSIYYDYDGFAYWGQGTLVTVSA
VL: DIQMTQSSSYLSVSLGGRVTITCKASDHINNWLAWYQQKPGNAPRLLISGATSLETGVPSRFSGSGSGKDYTLSITSLQTEDFTTYYCQQYWSTPYTFGGGTKLEIK
notes: second hybridoma campaign

binding result [3]: binds | binding result [2]: no binding (tested: 33, 100, and 300 nM)
B5: B3 (antibody, V domains shown)
VH: EVKLVESGGGLVKPGGSLKLSCTASGFTFSNYAMSWVRQTPEKRLEWVASISGGGSTYYPDSVKGRFTIAIDYARNILYLQMSSLRSEDTAIYFCTRGVSYGDYAMDYWGQGTSVTVSS
VL: ETTVTQSPASLSMAIGEKVTIRCVTSTDIDDDMNWYQQKPGGPPKLLISEGNTLRPGVPSRFSSSGYGSDFVFTIEDMLSEDVADYYCLQSDNLPLTFGAGTKVELK
notes: B-cell cloning campaign (mice)

binding result [3]: binds | Kd [2]: 88.3 nM | koff [2]: 0.00054 s⁻¹ | kon [2]: 6100 M⁻¹ s⁻¹ | t½ [2]: 21.4 min
B6: B4 (antibody, V domains shown)
VH: B5 VH with F94Y
VL: B5 VL
notes: as for B5
